Data taken from patent US20230141962A1.

Molecular target: SARS-CoV-2 spike protein S1 subunit (WIV4) (SARS-CoV-2 (isolate 2019-nCoV, WIV4)), P0DTC2
Conditions: remark: other sources report otherwise

B1: scFv clone #26 (scFv)
scFv: QAVLTQAPSASGTLGQQVTISCSGTTSNIGRNTVNWYQHLPGTAPKLLIFVSNQRPSGVPDRFSGSKSGTSASLVISGLQSEDEADYYCGAWDDSLDGMLFGGGTKLTVLGSRGGGGSGGGGSGGGGSLEMAQVQLVQSGAEVKKPGASVKVSCKASGYTFTSYGISWVRQAPGQGLEWMGWISAYNGNTNYAQKLQGRVTMTTDTSTSTAYMELRSLRSDDTAVYYCARGYYGDLDPWGQGTLVTVSSTSGQAGQ
- IC50: 1.33 nM
